Source: article PMC6411837
One block for each substance: values may come before it.

Key:
[1] = target: 40S·eIF1·eIF1A·mRNA complex with WT eIF1, P32911;P38912; experiment: TC binding kinetics (kobs versus [40S], as in Figure 6A–C); settings: three independent experiments
[2] = target: ternary complex (TC) of WT eIF2, GDPNP and Met-tRNAi, P20459;P09064;P32481; experiment: TC dissociation kinetics, EMSA
[3] = system: eIF2 with eIF2beta-F217A/Q221A;eIF1 (WT);eIF1A (WT);40S ribosomal subunit (Saccharomyces cerevisiae (yeast);Saccharomyces cerevisiae (yeast);Saccharomyces cerevisiae? (yeast);Saccharomyces cerevisiae (strain YAS2488)); experiment: EMSA kinetics; settings: aminoacylated with Met; 30 mM HEPES-KOH pH 7.4, 100 mM potassium acetate, 3 mM magnesium acetate, 2 mM DTT, 26 C; GDPNP; native gel shift
[4] = system: eIF2 (WT), GDPNP-bound;eIF1-Q31A/F108A;eIF1A (WT);40S ribosomal subunit (Saccharomyces cerevisiae (yeast);Saccharomyces cerevisiae (yeast);Saccharomyces cerevisiae? (yeast);Saccharomyces cerevisiae (strain YAS2488)); experiment: EMSA kinetics; settings: aminoacylated with Met, 30 mM HEPES-KOH pH 7.4, 100 mM potassium acetate, 3 mM magnesium acetate, 2 mM DTT, 26 C, native gel shift
[5] = system: eIF2 with eIF2beta-E189R;eIF1 (WT);eIF1A (WT);40S ribosomal subunit (Saccharomyces cerevisiae (yeast);Saccharomyces cerevisiae (yeast);Saccharomyces cerevisiae? (yeast);Saccharomyces cerevisiae (strain YAS2488)); experiment: EMSA kinetics; settings: aminoacylated with Met; 30 mM HEPES-KOH pH 7.4, 100 mM potassium acetate, 3 mM magnesium acetate, 2 mM DTT, 26 C; GDPNP; native gel shift

kon ([1]; mRNA(AUG)): 4.11 s⁻¹ | kon ([1]; mRNA(UUG)): 2.76 s⁻¹
Substance: ternary complex (TC) of WT eIF2, GDPNP and Met-tRNAi (from UniProt P20459;P09064;P32481) eIF2β:S202A; eIF2β:K214A

koff ([2]; mRNA(AUG), n = 3 (WT n = 5)): 5e-05 s⁻¹ | koff ([2]; mRNA(UUG), n = 3 (WT n = 5)): 7.5e-05 s⁻¹
Substance: 40S·eIF1·eIF1A·mRNA complex with WT eIF1 (from UniProt P32911;P38912) eIF1:F108D

Substance: Met-tRNAi on 40S with mRNA(AUG)
binding signal (fold decrease in kon vs WT eIF2) [3]: 1.5 | binding signal (fold decrease in kon vs WT eIF1) [4]: 2

Substance: Met-tRNAi on 40S with mRNA(UUG)
binding signal (fold decrease in kon vs WT eIF2) [3]: 1.5 | binding signal (fold decrease in koff vs WT eIF2) [5]: 2

koff ([2]; mRNA(UUG), n = 4 (WT n = 5)): 3.33e-05 s⁻¹
Substance: 40S·eIF1·eIF1A·mRNA complex with WT eIF1 (from UniProt P32911;P38912) eIF1:Q31E
